For two substances, binding signal (relative rate) and relative cleavage activity results are on record in US5698421.

Substitutions are numbered along the chain they refer to.

Series [1] has as its target T1, aI2-encoded protein (wild-type, 62 kDa), aI2 RNP particle (Saccharomyces cerevisiae) (UniProt P03876).
T1 sequence: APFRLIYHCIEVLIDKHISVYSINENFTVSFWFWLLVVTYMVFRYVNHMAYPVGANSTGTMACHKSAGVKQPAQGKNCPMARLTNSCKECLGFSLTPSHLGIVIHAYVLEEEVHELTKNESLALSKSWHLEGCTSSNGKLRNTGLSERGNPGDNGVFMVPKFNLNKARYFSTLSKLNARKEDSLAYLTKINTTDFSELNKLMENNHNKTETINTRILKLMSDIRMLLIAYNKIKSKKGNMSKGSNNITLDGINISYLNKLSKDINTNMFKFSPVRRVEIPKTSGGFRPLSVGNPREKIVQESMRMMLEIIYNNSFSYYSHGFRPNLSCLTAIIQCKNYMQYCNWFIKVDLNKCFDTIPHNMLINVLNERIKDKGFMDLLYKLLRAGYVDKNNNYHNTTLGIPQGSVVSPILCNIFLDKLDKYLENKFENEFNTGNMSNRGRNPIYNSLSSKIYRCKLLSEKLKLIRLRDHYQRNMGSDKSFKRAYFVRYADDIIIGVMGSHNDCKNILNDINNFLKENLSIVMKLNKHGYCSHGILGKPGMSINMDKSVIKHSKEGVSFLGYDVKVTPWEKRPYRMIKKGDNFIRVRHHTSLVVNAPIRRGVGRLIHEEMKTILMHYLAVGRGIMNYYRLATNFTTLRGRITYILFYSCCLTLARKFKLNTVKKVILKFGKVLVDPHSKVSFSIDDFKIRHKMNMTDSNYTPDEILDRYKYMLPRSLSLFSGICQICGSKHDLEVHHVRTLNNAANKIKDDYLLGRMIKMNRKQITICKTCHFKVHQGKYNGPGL
Put plainly: cleavage_in_vitro. To be noted: 20 mM Mg.

Series [2] deals with T2, aI2-encoded protein P714T P714T (Saccharomyces cerevisiae) (UniProt P03876).
T2 sequence: T1 sequence with P714T
Put plainly: cleavage_in_vitro. The conditions noted are these: relative to Example 1 RNP.

In series [1], “excised aI2 intron RNA ; pE2E3 142 nt RNA substrate” registered a binding signal (relative rate) of 1.

In the case of “excised aI2 RNA, strain-specific mutated ; pE2E3-derived substrate, E2-E3 target”, the relative cleavage activity in series [2] (antisense strand) came to 6%; in series [2] (sense strand) it was 25%.
